# Data reported in patent publication US20240109937A1, “BINDING PEPTIDES AND USES THEREOF” (The Johns Hopkins University, priority 2021, published 2024).
# Key:
# [1] = biological target: T1, Peptidylprolyl isomerase A (PPIA), also known as cyclophilin A (CypA), P62937; test: printed as 'Disrupts the complex AIF/Cyclophilin with a KD'; method not stated
# [2] = biological target: T1, Peptidylprolyl isomerase A (PPIA), also …; test: method not stated; told in the description of FIG. 20
# T1 sequence (P62937 whole entry): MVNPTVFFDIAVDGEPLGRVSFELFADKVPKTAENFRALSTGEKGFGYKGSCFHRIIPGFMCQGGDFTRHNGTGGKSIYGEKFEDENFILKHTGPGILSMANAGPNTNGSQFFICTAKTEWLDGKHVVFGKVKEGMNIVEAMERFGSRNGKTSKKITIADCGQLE
binder,measurement,setting,value
GRKKRRQRRRAQSVGVSSGKLLIKLKDGRKVETDHI (modifications not checked) [TAT-AIF (370-394)],Kd,[1],5 µM
same,Kd,[2],12 µM
